# Test results as given in the supplement of paper PMC12764529.
# ± gives the half width of the 95% confidence interval.
# Experiment: folding stability dG unfold from trypsin proteolysis; higher = more stable
# Outline: (§1)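 Sequencing followed digestion of designed mini-proteins with trypsin and chymotrypsin, each at 11 concentrations in threefold dilutions together with a no-protease condition. The mini-proteins were under 80 residues, had no cysteine, sat in a PA-tagged cDNA display construct, and were kept only if AlphaFold2 dimer inter-PAE was above 15. From the counts, Bayesian fitting gave K50, and unfolding free energy was derived against a sequence-predicted unfolded-state K50 and a shared folded-state K50, per protease or combined.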
row,Sequence,folding stability dG unfold [kcal/mol]
1,SAGGSAGGSADDEIVAEFTFTVPGTGVKKVKVKVFKDPNSDEYWVRVEGKWLPVSNPEEALESAGGSAGGSA [r18_67_TrMRF],1.62 ± 0.11
2,NIRITDIEMYPFPNNNQPQMEFTLEWPNGPRRTVEFELPGQEMEVYVDPKKGEIWFYFPNNGMFMKITIEPS [r1_125_TrROS],1.37 ± 0.068
3,SAGGSAGGSAGKIEIDPSKPALVRVRLVPENGIPREIVVEAGDLSKLLPENFKVLSIELGSAGGSAGGSAGG [r17_449_TrMRF],0.295 ± 0.09
4,SAGGSAGGSAGGSKKEKYYLVTRIEVEVNGKKYPLGSKLPKNLPPGAKIKIETRIVKLDSAGGSAGGSAGGS [r4_436_TrROS_Hall],2.35 ± 0.15
5,SAGGMTIEEILNMSIEEVKALAEEKGLKEVVITLPDGSKITIKVNKDGSIEVTVTNKDGSKKTFTFPSAGGS [r8_51_TrROS_Hall],3.91 ± 0.42
6,SAGGMSITITTNAPKEVLLRFIKDLAEEIGVEVDVEVTVEPLEDGPIVTAHVHIDPKEPEVPLEELFSAGGS [r16_262_TrMRF],0.75 ± 0.018
7,SAGGSAGGSAGSPLAQAVIDELKAQGYTVEAVTVTQPPGNAPVVVVTVKKPDGTRVVIDLSAGGSAGGSAGG [r11_780_JUSTAS],2.74 ± 0.12
8,SAGGSAGGSKKKIKVIIEVEVNGKKYKIEVEAETEEEAKKKAEEAIKELKKKFPNVKIKKIKPSAGGSAGGS [r12_230_TrROS_Hall],2.38 ± 0.13
9,SAPLKIDLDIEPIPPGDKVRFNARITYPDGHPIRIPFEIYVPPDEIVIKFPIQDPKNGEPIAPLTFVIKSAG [r14_670_TrROS],1.53 ± 0.046
10,SAGGSAGGSANGFVFKIKEVFEVDGKLFLKVTGTDKEYIIPDNAIIEPLEDDSVKVIILPPESAGGSAGGSA [r18_468_TrMRF],1.19 ± 0.021
11,SAGGMKVRVRLPDGTEVELEVTEVTVSTDPSTGTPVYTITLANGEKLTVTVPVDKPVRPGETVTVTPESAGG [r13_390_JUSTAS],3.72 ± 0.056

# Experiment: folding stability dG unfold from chymotrypsin proteolysis; higher = more stable
# Outline: as §1
row,Sequence,folding stability dG unfold [kcal/mol]
1,SAGGSMITLTFPAPREVAVPAIEAAAEKHGVTILSVEFDPATGRLTVTVDSSLPEEEVRAMVAAVLASAGGS [r8_338_JUSTAS],4.47 ± 0.058
2,SAGGSAGGSAGMKVVVTLPDRTVTIPVNGTLDEAKEAVIKRAEELFGKPIPIEEITMSGESAGGSAGGSAGG [r11_1028_JUSTAS],-0.0243 ± 0.083
3,SAGGSAGGSPPPITIFTAYKDPEDGPYWMKRRKINPDNGNIEEEWYPADDLADHGLPPGDIFISAGGSAGGS [r12_123_TrROS],0.413 ± 0.33
4,SAGGSAGGSAGMLKKSPSPSIITVKIKPPDSDEVKTINIPPDKPEEVEKLREKGLEIEVLSAGGSAGGSAGG [r11_1006_JUSTAS],-0.178 ± 0.37
5,SMPEILDVREDPDAPGALTFRVKLPDGEATVVIPYDPETGTFTAVRYYPDGEEVREFDSFEDALEAILEDSA [r9_366_TrMRF],1.46 ± 0.051
6,SAGGSAGGSAGKPKKKPPKPKIETKTITVTITNKDGSKTTVTATIVRNKDTNELFIRISSSAGGSAGGSAGG [r11_1024_TrROS_Hall],3.13 ± 0.12
7,SAGKKSIVAPYEELKKIIELLPSGKKYKVIASDPNGKKIEGTIEVKGGKAKIEPGPKNTFKDLLIVITGSAG [r5_85_TrMRF],0.3 ± 0.13
8,SAGGIKIEIMFLMPLKDVRSIIDEIAKMPGIKITDVEVDIIPFENGTVMFRVTFEIEIYDPENGEPISAGGS [r8_374_TrROS],4.78 ± 0.18
9,SAGGSANNWKPIGEFPFRHPDGWRVTVPIWRDPGEGNIKINVKYQGPNGPPSKQMKEWAKKLLDEISAGGSA [r15_529_TrROS],0.654 ± 0.32
10,SAGGSAMMTVTITIPKENLTKEEIKKALEEAGAKVVKVEEKDGKVTVTVEMTPEQVEKLKEALKKLSAGGSA [r15_161_TrROS_Hall],3.53 ± 0.28
11,SAGGMNTESSFPITLPDGRKVLKNVKTDPETGEITVTVTSIGDPNVKTTEKVDPENPEKVLETVTKPESAGG [r13_400_JUSTAS],0.206 ± 0.11
12,SMKITEIEPDGDGTLEIEIPVEAPPGMDPDEVQIYVMSDDGIRHVRITPNGTVEITIENIPDIRIYIFVHSA [r9_722_TrROS],2.47 ± 0.073
13,SAGGSVTLSAEFTLPDGSRVRLTVEVLPDGTLRVSAEVEAVPLVPPVRVSRLPDGSLVSDPLGVPLVLSAGG [r13_151_TrMRF],1.31 ± 0.11
14,SAGGGPLRTVEVELEFETEEEAEKAIKEYLEKLGLPPEKVEVSFVSREERLVEDKIVYRYKFVFTLPSAGGS [r16_240_JUSTAS],5.13 ± 0.13
15,SAGGMTIKPGETVEIEVGGKKITLTRNENGELTITIEDEETGETLTITVPKDTTLEEVLKKIEELLKSAGGS [r8_158_TrROS_Hall],3.45 ± 0.064
16,SAGGKIEVEPEVELYRTPDGRLVARPKPVKVKITLKLTITNENGEKKTIEVEADTPEEALAALKALSSAGGS [r8_440_TrROS_Hall],0.726 ± 0.2
17,SAGGTVEEIKEKLEEAGWEVVKVEKKEDGSITVTVRRKDGKELKIEIDLKNEEVRKALAELLPEEELSAGGS [r16_821_TrROS_Hall],3.22 ± 0.13
18,SAMVVSEELSPEGTRTTTTFNPATGTSTTTTTPIPEEPPLPPVSIPTSLSPEEREALREELEAAGVPVVLGS [r1_242_JUSTAS],0.0811 ± 0.093
19,SAMRPGDPWKPVEERKIPIRNPNNGKEIEIEVYRFKDDGMYMVSIHFPDGKSIQFMVPPGDVEEIIEQISAG [r14_240_TrROS],3.171 ± 0.016
20,SAGMITVPLPDGSVLELTVEKETVTTEVDPSTGKKRLVTETLMTNTGDLAVNGKVSPTTATLTTVVLESAGG [r19_246_JUSTAS],0.373 ± 0.045
21,SSISIPGLTEEKAAELAKRLRELFPGAEVKTTTFPEKKVVVVDVTLPVVDADGKLVGTVKLRLVLVVEDDSA [r9_378_TrMRF],4.55 ± 0.21
